Laboratory results from paper PMC9365787, “Molecular basis of MHC I quality control in the peptide loading complex” (Nature Communications, 2022).

T1: ERp57 (human (endogenous in Raji), UniProt P30101 25-505, disulfide from Cys33 to Cys95 of tapasin)
T1 construct: also called disulfide isomerase ERp57; source: endogenous, Raji (Burkitt's lymphoma) cells, solubilised in GDN; purified within the PLC by ICP47^SBP and reconstituted in MSP2N2 nanodiscs
T1 sequence (looked up): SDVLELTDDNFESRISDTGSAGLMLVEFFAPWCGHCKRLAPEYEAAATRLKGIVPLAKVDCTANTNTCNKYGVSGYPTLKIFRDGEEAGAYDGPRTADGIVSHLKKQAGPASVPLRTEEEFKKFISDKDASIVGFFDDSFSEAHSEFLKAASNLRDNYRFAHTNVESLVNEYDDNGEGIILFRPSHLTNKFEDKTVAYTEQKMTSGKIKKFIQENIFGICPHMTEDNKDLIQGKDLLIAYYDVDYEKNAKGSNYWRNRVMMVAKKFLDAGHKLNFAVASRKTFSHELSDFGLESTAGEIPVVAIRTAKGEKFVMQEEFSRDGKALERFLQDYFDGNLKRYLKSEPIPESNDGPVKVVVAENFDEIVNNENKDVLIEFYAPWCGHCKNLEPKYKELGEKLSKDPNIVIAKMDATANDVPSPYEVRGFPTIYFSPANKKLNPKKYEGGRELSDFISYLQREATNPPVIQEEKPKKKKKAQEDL

B1: tapasin (natural protein, human (endogenous in Raji), UniProt O15533 21-448, looked up)
chain: GPAVIECWFVEDASGKGLAKRPGALLLRQGPGEPPPRPDLDPELYLSVHDPAGALQAAFRRYPRGAPAPHCEMSRFVPLPASAKWASGLTPAQNCPRALDGAWLMVSISSPVLSLSSLLRPQPEPQQEPVLITMATVVLTVLTHTPAPRVRLGQDALLDLSFAYMPPTSEAASSLAPGPPPFGLEWRRQHLGKGHLLLAATPGLNGQMPAAQEGAVAFAAWDDDEPWGPWTGNGTFWLPTVQPFQEGTYLATIHLPYLQGQVTLELAVYKPPKVSLMPATLARAAPGEAPPELLCLVSHFYPSGGLEVEWELRGGPGGRSQKAEGQRWLSALRHHSDGSVSLSGHLQPPPVTTEQHGARYACRIHHPSLPASGRSAEVTLEVAGLSGPSLEDSVGLFLSAFLLLGLFKALGWAAVYLSTCKDSKKKAE
modifications: N-glycan at Asn233 (Man9-0GlcNAc2-1, heterogeneous); disulfide from Cys95 to Cys33 of ERp57
notes: source: endogenous, Raji (Burkitt's lymphoma) cells, solubilised in GDN; purified within the PLC by ICP47^SBP and reconstituted in MSP2N2 nanodiscs
B2: calreticulin (natural protein, human (endogenous in Raji), UniProt P27797 18-417, looked up)
chain: EPAVYFKEQFLDGDGWTSRWIESKHKSDFGKFVLSSGKFYGDEEKDKGLQTSQDARFYALSASFEPFSNKGQTLVVQFTVKHEQNIDCGGGYVKLFPNSLDQTDMHGDSEYNIMFGPDICGPGTKKVHVIFNYKGKNVLINKDIRCKDDEFTHLYTLIVRPDNTYEVKIDNSQVESGSLEDDWDFLPPKKIKDPDASKPEDWDERAKIDDPTDSKPEDWDKPEHIPDPDAKKPEDWDEEMDGEWEPPVIQNPEYKGEWKPRQIDNPDYKGTWIHPEIDNPEYSPDPSIYAYDNFGVLGLDLWQVKSGTIFDNFLITNDEAYAEEFGNETWGVTKAAEKQMKDKQDEEQRLKEEEEDKKRKEEEEAEDKEDDEDKDEDEEDEEDKEEDEEEDVPGQAKDEL
notes: as for B1

Legend:
[1] = molecular target: T1, ERp57; experiment: cryo-EM structure; PLC::MSP2N2 (1.8 mg/ml, 2.5 µM) in lipid nanodiscs without chemical fixation; focused refinement on the fully assembled editing module, 3.7 Å; settings: both partners purified
[2] = molecular target: B1; experiment: as above; settings: both partners purified

| binding result [1] | binding result [2] | Binder |
| --- | --- | --- |
| binds | – | B1 |
| – | binds | B2 |
